Results reported in PMC10397247.
One block for each binder: values may come before it.

What was measured:
4H4033-AA = target: T1, 4H4033-AA; assay: two-hybrid library CCmax; conditions: mean of both orientations;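 further: natural log of median RNA to DNA barcode read ratio; higher means stronger binding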
T1 chain: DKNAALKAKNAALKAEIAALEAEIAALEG

4H481-AA = target: T2, 4H481-AA; assay: two-hybrid library CCmax; conditions: mean of both orientations;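 further: natural log of median RNA to DNA barcode read ratio; higher means stronger binding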
T2 chain: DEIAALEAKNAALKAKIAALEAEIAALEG

4H3625-AA = target: T3, 4H3625-AA; assay: two-hybrid library CCmax; conditions: mean of both orientations;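 further: natural log of median RNA to DNA barcode read ratio; higher means stronger binding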
T3 chain: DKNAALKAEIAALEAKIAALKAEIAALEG

4H2935-AA = target: T4, 4H2935-AA; assay: two-hybrid library CCmax; conditions: mean of both orientations;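 further: natural log of median RNA to DNA barcode read ratio; higher means stronger binding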
T4 chain: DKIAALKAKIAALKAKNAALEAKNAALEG

4H327-AA = target: T5, 4H327-AA; assay: two-hybrid library CCmax
T5 chain: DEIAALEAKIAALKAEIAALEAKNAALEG

4H3664-AA = target: T6, 4H3664-AA; assay: two-hybrid library CCmax; conditions: mean of both orientations
T6 chain: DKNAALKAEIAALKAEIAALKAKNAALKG

4H3922-AA = target: T7, 4H3922-AA; assay: two-hybrid library CCmax; conditions: mean of both orientations
T7 chain: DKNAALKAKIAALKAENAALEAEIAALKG

4H2726-AA = target: T8, 4H2726-AA; assay: two-hybrid library CCmax
T8 chain: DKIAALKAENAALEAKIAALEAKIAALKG

4H3605-AA = target: T9, 4H3605-AA; assay: two-hybrid library CCmax; conditions: mean of both orientations
T9 chain: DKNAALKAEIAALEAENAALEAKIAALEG

4H55-AA = target: T10, 4H55-AA; assay: two-hybrid library CCmax; conditions: mean of both orientations
T10 chain: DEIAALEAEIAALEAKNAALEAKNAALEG

4H662-AA = target: T11, 4H662-AA; assay: two-hybrid library CCmax; conditions: mean of both orientations
T11 chain: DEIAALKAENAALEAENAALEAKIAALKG

4H369-AA = target: T12, 4H369-AA; assay: two-hybrid library CCmax; conditions: mean of both orientations
T12 chain: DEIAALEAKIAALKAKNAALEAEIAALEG

P9A = target: T13, P9A; assay: two-hybrid library CCNG1
T13 chain: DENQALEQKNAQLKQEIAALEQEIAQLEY

4H3590-AA = target: T14, 4H3590-AA; assay: two-hybrid library CCmax; conditions: mean of both orientations
T14 chain: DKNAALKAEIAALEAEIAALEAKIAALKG

4H43-AA = target: T15, 4H43-AA; assay: two-hybrid library CCmax; conditions: mean of both orientations
T15 chain: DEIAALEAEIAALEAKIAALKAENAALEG

4H_BCR = target: T16, 4H_BCR; assay: two-hybrid library CCmax
T16 chain: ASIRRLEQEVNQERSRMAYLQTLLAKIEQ

GCN2_T = assay: two-hybrid library CCmax
O14-AA = target: T17, O14-AA; assay: two-hybrid library CCmax; conditions: mean of both orientations
T17 chain: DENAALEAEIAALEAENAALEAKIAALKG

4H384-AA = target: T18, 4H384-AA; assay: two-hybrid library CCmax; conditions: mean of both orientations
T18 chain: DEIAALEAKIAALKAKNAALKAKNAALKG

4H4038-AA = target: T19, 4H4038-AA; assay: two-hybrid library CCmax; conditions: mean of both orientations
T19 chain: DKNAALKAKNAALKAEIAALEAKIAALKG

4H_GCN4 = assay: two-hybrid library CCmax
Sequence of 4H_GCN4 (chain, as listed by the source): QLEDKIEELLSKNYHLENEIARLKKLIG

O13-AA = target: T20, O13-AA; assay: two-hybrid library CCmax; conditions: mean of both orientations
T20 chain: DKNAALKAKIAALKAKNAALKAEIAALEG

4H510-AA = target: T21, 4H510-AA; assay: two-hybrid library CCmax; conditions: mean of both orientations
T21 chain: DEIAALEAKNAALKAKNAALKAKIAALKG

4H_APH = target: T22, 4H_APH; assay: two-hybrid library CCmax
T22 chain: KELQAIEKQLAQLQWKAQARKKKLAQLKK

4H451-AA = target: T23, 4H451-AA; assay: two-hybrid library CCmax; conditions: mean of both orientations
T23 chain: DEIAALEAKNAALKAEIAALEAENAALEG

4H3905-AA = target: T24, 4H3905-AA; assay: two-hybrid library CCmax; conditions: mean of both orientations
T24 chain: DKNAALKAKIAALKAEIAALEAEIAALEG

4H3587-AA = target: T25, 4H3587-AA; assay: two-hybrid library CCmax
T25 chain: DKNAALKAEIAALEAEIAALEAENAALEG

O11-AA = target: T26, O11-AA; assay: two-hybrid library CCmax; conditions: mean of both orientations
T26 chain: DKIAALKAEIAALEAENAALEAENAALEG

4H477-bH = target: T27, 4H477-bH; assay: two-hybrid library CCNG1
T27 chain: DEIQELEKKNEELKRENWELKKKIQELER

4H2915-bH = target: T28, 4H2915-bH; assay: two-hybrid library CCNG1
T28 chain: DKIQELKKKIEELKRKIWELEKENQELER

4H40-bH = target: T29, 4H40-bH; assay: two-hybrid library CCNG1
T29 chain: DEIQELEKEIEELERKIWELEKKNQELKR

4H319-bH = target: T30, 4H319-bH; assay: two-hybrid library CCNG1
T30 chain: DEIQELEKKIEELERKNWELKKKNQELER

4H348-bH = target: T31, 4H348-bH; assay: two-hybrid library CCNG1
T31 chain: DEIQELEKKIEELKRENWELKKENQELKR

4H3057-bH = target: T32, 4H3057-bH; assay: two-hybrid library CCNG1
T32 chain: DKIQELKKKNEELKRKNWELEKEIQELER

4H3277-bH = target: T33, 4H3277-bH; assay: two-hybrid library CCNG1
T33 chain: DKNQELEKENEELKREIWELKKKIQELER

4H741-bH = target: T34, 4H741-bH; assay: two-hybrid library CCNG1
T34 chain: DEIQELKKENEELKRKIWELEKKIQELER

4H492-bH = target: T35, 4H492-bH; assay: two-hybrid library CCNG1
T35 chain: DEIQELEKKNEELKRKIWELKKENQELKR

P9SHb = target: T36, P9SHb; assay: two-hybrid library CCNG1
T36 chain: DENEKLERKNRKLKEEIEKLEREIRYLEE

4H492-bN = target: T37, 4H492-bN; assay: two-hybrid library CCNG1
T37 chain: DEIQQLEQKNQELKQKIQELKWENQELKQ

4H477-bN = target: T38, 4H477-bN; assay: two-hybrid library CCNG1
T38 chain: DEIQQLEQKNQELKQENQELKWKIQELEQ

4H319-bN = target: T39, 4H319-bN; assay: two-hybrid library CCNG1
T39 chain: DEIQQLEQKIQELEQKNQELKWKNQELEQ

4H2839-bN = target: T40, 4H2839-bN; assay: two-hybrid library CCNG1
T40 chain: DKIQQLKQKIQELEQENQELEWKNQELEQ

4H40-bN = target: T41, 4H40-bN; assay: two-hybrid library CCNG1
T41 chain: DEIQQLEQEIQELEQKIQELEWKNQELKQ

4H3277-bN = target: T42, 4H3277-bN; assay: two-hybrid library CCNG1
T42 chain: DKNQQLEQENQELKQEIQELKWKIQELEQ

4H2915-bN = target: T43, 4H2915-bN; assay: two-hybrid library CCNG1
T43 chain: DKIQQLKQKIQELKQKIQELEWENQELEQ

4H741-bN = target: T44, 4H741-bN; assay: two-hybrid library CCNG1
T44 chain: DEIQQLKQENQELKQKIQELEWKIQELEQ

4H348-bN = target: T45, 4H348-bN; assay: two-hybrid library CCNG1
T45 chain: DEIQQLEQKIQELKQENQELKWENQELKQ

4H3057-bN = target: T46, 4H3057-bN; assay: two-hybrid library CCNG1
T46 chain: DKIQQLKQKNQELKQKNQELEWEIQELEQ

Binder: DKIAALKAENAALEAKIAALEAKIAALKG [4H2726-AA]
interaction score (4H4033-AA): 2.08 | interaction score (4H481-AA): 1.94 | interaction score (4H3625-AA): -0.165 | interaction score (4H2935-AA): -1.45 | interaction score (4H327-AA): 0.992 | interaction score (4H3664-AA): -1.05 | interaction score (4H3922-AA): -1.41 | interaction score (4H2726-AA): 1.36 | interaction score (4H3605-AA): -0.283 | interaction score (4H55-AA): -1.14 | interaction score (4H662-AA): -0.732 | interaction score (4H369-AA): 1.68

Binder: DKIQELKKKIEELKRKIWELEKENQELER [4H2915-bH]
interaction score (4H477-bH): -2.15 | interaction score (4H2915-bH): 0.772 | interaction score (4H40-bH): -1.4 | interaction score (4H319-bH): -1.33 | interaction score (4H348-bH): -0.507 | interaction score (4H3057-bH): -0.637 | interaction score (4H3277-bH): -1.15 | interaction score (4H741-bH): -0.324 | interaction score (4H492-bH): -1.59

Binder: DKIQQLKQKIQELEQENQELEWKNQELEQ [4H2839-bN]
interaction score (4H492-bN): -0.542 | interaction score (4H477-bN): -1.55 | interaction score (4H319-bN): 1.51 | interaction score (4H2839-bN): -0.536 | interaction score (4H40-bN): -0.765 | interaction score (4H3277-bN): -0.558 | interaction score (4H2915-bN): 0.377 | interaction score (4H741-bN): -1.58 | interaction score (4H348-bN): -0.511 | interaction score (4H3057-bN): -0.124

Further lines, results first:

interaction score (P9A): -1.28
Binder: DENQALEQKNAQLKQEIAALEQEIAQLEY [P9A]

interaction score (4H3590-AA): -0.934 | interaction score (4H3625-AA): -0.634 | interaction score (4H43-AA): -0.335 | interaction score (4H_BCR): -2.15 | interaction score (GCN2_T): -2.29 | interaction score (O14-AA): -1.35 | interaction score (4H384-AA): 1.5 | interaction score (4H4038-AA): -1.05 | interaction score (4H_GCN4): -1.87 | interaction score (O13-AA): 0.274 | interaction score (4H510-AA): -0.509 | interaction score (4H_APH): -1.77 | interaction score (4H451-AA): -1.79 | interaction score (4H3905-AA): -0.0465 | interaction score (4H3587-AA): -2.04 | interaction score (O11-AA): -1.13
Binder: DKNAALKAEIAALEAEIAALEAENAALEG [4H3587-AA]

interaction score (P9SHb): -0.553
Binder: DENEKLERKNRKLKEEIEKLEREIRYLEE [P9SHb]
